{
  "source": "patent US20130081152",
  "tested_on": "T1, His-tagged recombinant PbGDPS_SSU (expressed in E. coli from pET15b)",
  "T1 sequence": "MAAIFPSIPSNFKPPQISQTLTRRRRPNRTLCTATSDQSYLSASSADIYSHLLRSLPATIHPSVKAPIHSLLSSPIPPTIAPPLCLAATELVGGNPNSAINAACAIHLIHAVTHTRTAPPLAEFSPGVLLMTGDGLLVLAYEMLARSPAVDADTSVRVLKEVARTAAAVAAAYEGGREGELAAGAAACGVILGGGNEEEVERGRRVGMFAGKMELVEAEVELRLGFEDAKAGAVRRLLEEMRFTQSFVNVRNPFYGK",
  "data": [
    {"substance": "His-tagged recombinant PbGDPS_LSU (truncated, expressed in E. coli from pBAD202/D-TOPO)", "values": [
      {"measurement": "prenyltransferase activity", "value": "higher prenyltransferase activity than either PbGDPS_LSU or PbGDPS_SSU alone"}
    ]}
  ]
}
